Measured values taken from the supplement of paper PMC9170038.

Tested on: MS2 coat protein
Test: apparent KD of MS2 coat protein; higher = weaker reporter binding
Conditions: Eterna round: R107
Procedure: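 RNA-MaP round R107: designed RNA switches with theophylline, tryptophan, arginine or FMN aptamers are transcribed on-chip within common flanks. They are titrated with SNAP-549-labelled MS2 coat protein in RNA-MaP buffer (100 mM Tris pH 7.5, 80 mM KCl, 4 mM MgCl2), without ligand or with the indicated ligand. Median apparent KD per design.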

[1] = input ligand: theophylline 20 uM
[2] = input ligand: theophylline 2 mM
[3] = input ligand: tryptophan 2.4 mM

Sequence	apparent KD of MS2 coat protein (input ligand: arginine 13.2 mM)	apparent KD of MS2 coat protein (input ligand: none)	apparent KD of MS2 coat protein [1]	apparent KD of MS2 coat protein [2]	apparent KD of MS2 coat protein [3]
AAAUAAAUACAUGAGGAUCACCCAUGUGAAGGAGCGCCCGUUAGGGCAGGUAGGUCGCACAUGAAUAACUCCGCGCGAAAGCGCA [MAT - Exclusion Arginine A - Mod of Eli - D10]	41.8 nM	38.7 nM	37.1 nM	52.6 nM	35.8 nM
AAAUAGGUAGGAGAUACCAGAUACGUUAACAUGAGGAUCACCCAUGUGUAUGCACUUAGUGUCCCUUGGCAGCUCGAGGAUCUGG [#18 Same State - Theophylline B]	23.3 nM	–	37 nM	–	27.4 nM
AAAUUAUAGGCGGCCGCCACUAGAGUUAGGCUUAUGUACUGGGUAACAUGAGGAUCACCCAUGUAUAGGACCGGGCCAUAAUAAA [Same State - Tryptophan B (Freestyle 3)]	46.9 nM	–	76.2 nM	63.5 nM	–
AACAACUAGUCGGCCGCCACUCAUAAUACAUGAGGAUCACCCAUGUAUACUUGGUUUUUAUAUUUGAGGACCGGGACAGUUGCAU [JR_Nu_ExcTryptoB_Sub026]	12.5 nM	–	14.7 nM	10.7 nM	–
AACAUGAGGAUCACCCAUGUAAAAUGGGAUACCAGAGACGAAAGUCUCCCUUGGCAGCCCACUGCCUCCUUUACGAAAGUAGAGG [Theophylline A 15]	29.8 nM	–	32.5 nM	–	38.3 nM
AACAUGAGGAUCACCCAUGUAUUGGGUGAUACCAGCCUGAAUAAUGGCCCUUGGCAGCACCACGCUAACUUUAUGUCUGCGAACC [Maus]	39.3 nM	–	263 nM	–	83.6 nM
AACAUGAGGAUCACCCAUGUCGGGCCGGUGCGAGGACCGGUACGGCCGCCACUCGAGACAUGAGGAUCACCCAUGUUGUGCGUGA [Exclusion Tryptophan A GF23]	52.6 nM	162 nM	195 nM	221 nM	138 nM
AACAUGAGGAUCACCCAUGUCUGAACUGAAGGAGCGCUAAAUAAGGCAGGUAGGUCGCGGAAUUUUGUGUAUAUAUAUAUAUGGG [9.G]	17.6 nM	27.1 nM	34.2 nM	25 nM	24.3 nM
AACAUGAGGAUCACCCAUGUGUCCUCGAAACGAGGACCGGUACGGCCGCCACUCGAAAGGUGUUGACGAAAAGUCAGCACCAAAA [Mat - Exclusion - Trytophan A - D15]	122 nM	–	351 nM	412 nM	–
AACAUGAGGAUCACCCAUGUGUCCUCGAAACGAGGACCGGUACGGCCGCCACUCGAAAUAAGCUGUUGACGAAAAGUCAGCAGCA [Mat - Exclusion - Trytophan A - D20]	128 nM	–	300 nM	345 nM	–
AACAUGAGGAUCACCCAUGUGUCCUCGAAACGAGGACCGGUACGGCCGCCACUCGAAUAAGCUGUUGACGAAAAGUCAGCAGCAA [Mat - Exclusion - Trytophan A - D19]	91 nM	–	327 nM	314 nM	–
AACAUGAGGAUCACCCAUGUUCUCGUGUACCGAGGACCGGUACGGCCGCCACUCGGUUCUCGCGAGGAUGGUCAAAGACUAUCCA [Omei Trp A SS B v5]	22.6 nM	–	25.1 nM	24.7 nM	–
AACAUGAGGGCGGCCGCCACUCCAUGAACAUGAGGAUCACCCAUGUUGAGGAUCACCCAUGUUGUGAGGACCGGGCCACAUGAGG [Exclusion Tryptophan B 3]	31.7 nM	38 nM	66.1 nM	59.8 nM	89.6 nM
AACGGUCGUACCGGAAUGAUCCUCAUGUAACGAGGACCGGUACGGCCGCCACUCGAUAACAUGAGGAUCACCCAUGUAAUAAUAA [|T'-M'-Trp-Ms2|_Design11]	18.8 nM	–	17 nM	17.2 nM	–
AACGUGAACGUGGUAUACCCGUGUGCCGAAGGAGCGCCCGAAAGGGCAGGUAGGUCGCGGACGACAUGAGGAUCACCCAUGUUUG	42 nM	73.5 nM	97.2 nM	87.5 nM	57.7 nM
AACUGGAAAAGUGAUACCAGAGACAUGAGGAUCACCCAUGUACAUGAGGAUCACCCAUGUCUCCCUUGGCAGCACAAAAGGGAGA [Exclusion Theophylline B Gf11]	16.1 nM	–	37.6 nM	–	24.5 nM
AAGACGCCGGGAAGGAGCGCAUCCAAACCACACAUGAGGAUCACCCAUGUAUAAAUAUGCAUGCAGGUAGGUCGCCCGAUGUCCC [Orbemative]	32.4 nM	31.6 nM	48.8 nM	42.6 nM	36.5 nM
AAGGUGAUCCCAGAUACCAGCUUAACAUGAGGAUCACCCAUGUUUGGGACGAAAGUCCCGGGCCCUUGGCAGCUGGGUUGCCAAG [SSTheo B #18]	61.9 nM	–	402 nM	–	174 nM
AAGUGGCACGGAAGGAGCGAGUUUACCUAGAUAACAUGAGGAUCACCCAUGUAUAAUGGGACUCAGGUAGGUCGCCGUUGUCACU [#29 Same State - Arginine B]	24.9 nM	34.8 nM	51 nM	32.8 nM	30.7 nM
AAUAAAUCACAUGAGGAUCACCCAUGUGAUACCAGCCUGGAAACAGGCCCUUGGCAGCACAUGAGGAUCACCCAUGUGCUAAAUA [TheoAX 1 #DoubleMS2 #OpenEnded]	6.79 nM	–	8.81 nM	–	8.43 nM
AAUAACAUGAGGAUCACCCAUGUAAAAGAUACCAGAGUGAUGAUCCUCCCUUGGCAGCUUAAUAACGCUAUUGGAAACAAUAGCG [Mat - Same State Theophlline A - Mod of Eli - D7]	34.9 nM	–	158 nM	–	59 nM
AAUAACAUGAGGAUCACCCAUGUAAAAGAUACCAGAUGCAUGAUGAUCCCUUGGCAGCUUAACGCUGAUUGAUUACAAUCAGCGA	36.5 nM	–	128 nM	–	26.4 nM
AAUACAUGAGGAUCACCCAUGUAAGCUGAAGGAGCGCUGGAAACAGCAGGUAGGUCGCAGCUGCGACCUUGGUGAUCUAGGUCGC [(M1)-(M2)-(Arg1)-(Arg2)-(A)'-(M)'-(A)''_Design7]	17.5 nM	36.6 nM	35.8 nM	46.7 nM	24.3 nM
AAUACCGGAUCGGCCGCCACUGGUUGGCCCUGUGUACAUGAGGAUCACCCAUGUCCAUCCCAAACCAGGACCGGGAUCUUUGUGC [Ededmate]	11.7 nM	–	15.8 nM	13.7 nM	–
AAUAGCUUGAGGAUCACCCAAGUAAAAGAUACCAGAGUGAUGAUCCUCCCUUGGCAGCUUAACGCUGAUUGAUUACAAUCAGCGA	46.5 nM	33.8 nM	93.9 nM	106 nM	35.1 nM
AAUAUAAAAUAAAGAAAAUUUAUAUCUGAUACCAGACUCUCAUGGGUCCCUUGGCAGCAGUAACAUGAGGAUCACCCAUGUAUUA [JR_Nu_SSTheophyA_Sub026]	67.7 nM	–	70.6 nM	–	123 nM
AAUCGGACUCGUACAGCAUGUUGAGCGGAAGGAGCGGCGAAAGAGCCAGGUAGGUCGCCGCCGACAUGAGGAUCACCCAUGUACG [Orenti]	27.3 nM	119 nM	177 nM	258 nM	110 nM
AAUCGGAGAUGAAGGAGCGCGUACAUGAGGAUCACCCAUGUAUCAAAGCUUCUCCCGUGUAUGCAGGUAGGUCGCAUUUCCACGU [Ceriedan]	10.1 nM	9.12 nM	13 nM	9.18 nM	9.9 nM
AAUCGGGAUGGUCAAGGGUAUGCUAUAGAUACCAGUGCAGAGAAACACCCUUGGCAGCUGUGGAACAUGAGGAUCACCCAUGUAG [Theo A Ex t4]	17.2 nM	11.2 nM	22.7 nM	17.3 nM	11.1 nM
